Source: US20170088602A1 (Bristol-Myers Squibb, published 2017)
Like-named read-outs stand apart in the source and are kept apart here.

What was measured:
[1] = target: T1, human myostatin (mature, recombinant; R&D Systems) (human, UniProt O14793 267-375); assay: cell-based or functional assay
T1 sequence: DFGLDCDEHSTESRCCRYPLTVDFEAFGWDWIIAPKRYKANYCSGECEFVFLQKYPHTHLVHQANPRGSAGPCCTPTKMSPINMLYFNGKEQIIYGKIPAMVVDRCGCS

[2] = target: T1, human myostatin (mature, recombinant; …); assay: competitive HTRF, alanine scan
[3] = target: T1, human myostatin (mature, recombinant; …); assay: cell-based or functional assay; remark: listed apart in the source
[4] = target: T1, human myostatin (mature, recombinant; …); assay: HTRF competition binding assay, alanine mutant against 3116_A06
[5] = target: T2, human BMP-11 (GDF-11; R&D Systems) (human, UniProt O95390 299-407); assay: SPR Format B; immobilized BMP11, no pre-bound PRD-1474
T2 sequence (looked up): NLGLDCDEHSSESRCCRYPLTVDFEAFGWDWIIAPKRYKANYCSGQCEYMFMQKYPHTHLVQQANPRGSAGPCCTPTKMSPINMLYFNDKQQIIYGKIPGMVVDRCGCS
Procedure: (§1) Adnectin competition using “SPR format B”: The mechanism of action for anti-myostatin Adnectins was further evaluated in “SPR Format B”, where myostatin or BMP11 (10 μg/ml in 10 mM acetate pH 4.5) were directly immobilized on a CM5 sensor chip surface using EDC/NHS coupling chemistry to a density of 985 RU (myostatin) or 530 RU (BMP11). […] The running buffer for immobilization and competition experiments was 10 mM HEPES, 150 mM NaCl, 3 mM EDTA, and 0.05% v/v Surfactant P20, pH 7.4, and surfaces were regenerated between cycles using 4 injections of 50 mM NaOH for 15 s at 30 μl/min.

[6] = target: T2, human BMP-11 (GDF-11; R&D Systems); assay: SPR Format A; 100 nM BMP11 alone
Procedure: (§2) Competition SPR: Competitive binding assays to evaluate the ability of anti-myostatin Adnectins to compete with Type I and Type II receptors for binding to myostatin or BMP11, as a surrogate for myostatin, were also conducted using SPR on a Biacore T100 instrument, in two different experimental formats. In “SPR Format A”, sensor chip surfaces were prepared by immobilizing 100 ug/ml protein A (Pierce) in 10 mM acetate pH 4.5 to 4500 RU on a CM5 sensor chip (Biacore/GE Healthcare) using standard ethyl(dimethylaminopropyl) carbodiimide (EDC)/N-hydroxysuccinimide (NHS) chemistry, with ethanolamine blocking. […] The running buffer for immobilization and competition experiments was 10 mM HEPES, 150 mM NaCl, 3 mM EDTA, and 0.05% v/v Surfactant P20, pH 7.4, and surfaces were regenerated between cycles using two injections of 10 mM glycine pH 1.5 for 30 s at 30 μl/min.

[7] = target: T2, human BMP-11 (GDF-11; R&D Systems); assay: SPR Format B; immobilized BMP11 with pre-bound PRD-1474 as competitor
Procedure: as §1

[8] = target: T2, human BMP-11 (GDF-11; R&D Systems); assay: SPR Format A; 100 nM BMP11 with 200 nM ATI-1523 as competitor
Procedure: as §2

[9] = target: T1, human myostatin (mature, recombinant; …); assay: cell-based or functional assay; remark: listed apart in the source
[10] = target: T3, human Activin A (R&D Systems) (human, UniProt P08476 311-426); assay: cell-based or functional assay
T3 sequence (looked up): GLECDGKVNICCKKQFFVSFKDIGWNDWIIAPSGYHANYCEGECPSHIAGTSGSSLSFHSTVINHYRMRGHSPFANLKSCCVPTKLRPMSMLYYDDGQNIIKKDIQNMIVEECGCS

[11] = target: T2, human BMP-11 (GDF-11; R&D Systems); assay: cell-based or functional assay
[12] = target: T1, human myostatin (mature, recombinant; …); assay: competitive HTRF (1889E01/myostatin/ActRIIb-Fc sandwich)
Source text: An HTRF assay was used to measure the binding affinities of anti-myostatin Adnectins to myostatin. […] The Eu-W 1024 labeled Streptavidin is used to bind biotinylated 1889E01. […] In the presence of a competitive Adnectin, the HTRF signal decreases.

[13] = target: T1, human myostatin (mature, recombinant; …); assay: SPR format B, 37C
Procedure: (§3) A concentration range of anti-myostatin Adnectins was applied in HBSP running buffer. Regeneration of the chip surface between cycles was accomplished with 60 seconds of 10-50 mM NaOH. Kinetic traces of reference-subtracted sensorgrams were fit to a 1:1 binding model using Biaevaluation software. For Fc-formatted Adnectins, interaction kinetics are driven by avidity of bivalent Fc and dimeric myostatin even at low immobilization density. The data shown in Table 12 indicate that some of the Adnectins run in this SPR format bind myostatin and BMP-11 and also activin with similar affinities.

[14] = target: T3, human Activin A (R&D Systems); assay: SPR format B, 37C
Procedure: as §3

[15] = target: T2, human BMP-11 (GDF-11; R&D Systems); assay: SPR format B, 37C
Procedure: as §3

[16] = target: T1, human myostatin (mature, recombinant; …); assay: KinExA, solution phase, global analysis
Procedure: The affinities of PRD-1177 and ATI-1338 were also measured using the same assay format. Triplicate titrations of PRD-1177 were performed with myostatin at a monomer concentration of 1 nM (n=2) and 0.8 nM (n=1). Triplicate titrations of ATI-1338 were performed with myostatin at a monomer concentration of 5 nM (n=1), 1.6 nM (n=1), and 1.4 nM (n=1).

[17] = target: T3, human Activin A (R&D Systems); assay: cell-based or functional assay; remark: listed apart in the source
[18] = target: T1, human myostatin (mature, recombinant; …); assay: SPR format A, 25C
Procedure, shortened: (§4)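 Fc-fusion captured on an anti-human Fc antibody CM5 surface; anti-myostatin Adnectin injected over a concentration range in HBSP buffer. Regeneration used two 30 s pulses of 3M MgCl₂; reference-subtracted sensorgrams fitted to a 1:1 binding model.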

[19] = target: T2, human BMP-11 (GDF-11; R&D Systems); assay: SPR format A, 25C
Procedure, shortened: as §4

B1: 3116_A06 G30A (designed binder)
chain: MGVSDVPRDLEVVAATPTSLLISWSLPHQAKANYYRITYGETGGNSPVQEFTVPGRGVTATISGLKPGVDYTITVYAVTVTDTGYLKYKPISINYRTEIDKPSQHHHHHH
- Myostatin ARE-luc IC50 [1]: 40 nM
- IC50 [2]: 5.1 nM
- ARE-luciferase cell-based assay, IC50 relative to parent sequence [3]: > 10 fold
- fold increase in IC50 relative to the parental sequence (WT) [4]: > 10 fold

B2: 3116_A06 Y88A (designed binder)
chain: MGVSDVPRDLEVVAATPTSLLISWSLPHQGKANYYRITYGETGGNSPVQEFTVPGRGVTATISGLKPGVDYTITVYAVTVTDTGYLKAKPISINYRTEIDKPSQHHHHHH
- Myostatin ARE-luc IC50 [1]: > 100 nM
- IC50 [2]: 11 nM
- fold increase in IC50 relative to the parental sequence (WT) [4]: > 10 fold

B3: 3116_A06 T81A (designed binder)
chain: MGVSDVPRDLEVVAATPTSLLISWSLPHQGKANYYRITYGETGGNSPVQEFTVPGRGVTATISGLKPGVDYTITVYAVTVADTGYLKYKPISINYRTEIDKPSQHHHHHH
- Myostatin ARE-luc IC50 [1]: 32 nM
- IC50 [2]: 4.9 nM
- ARE-luciferase cell-based assay, IC50 relative to parent sequence [3]: > 10 fold
- fold increase in IC50 relative to the parental sequence (WT) [4]: > 10 fold

B4: 3116_A06 V80A (designed binder)
chain: MGVSDVPRDLEVVAATPTSLLISWSLPHQGKANYYRITYGETGGNSPVQEFTVPGRGVTATISGLKPGVDYTITVYAVTATDTGYLKYKPISINYRTEIDKPSQHHHHHH
- Myostatin ARE-luc IC50 [1]: > 100 nM
- IC50 [2]: 4 nM
- fold increase in IC50 relative to the parental sequence (WT) [4]: > 10 fold

B5: ALK5-Fc (R&D Systems) (Fc fusion, UniProt P36897 34-125, looked up, not shown: a dimerising Fc or GST)
chain: LQCFCHLCTKDNFTCVTDGLCFVSVTETTDKVIHNSMCIAEIDLIPRDRPFVCAPSSKTGSVTTTYCCNQDHCNKIELPTTVKSSPGLGPVE
- SPR binding response (normalized) [5]: 100%
- SPR binding response (normalized) [6]: 100%
- SPR binding response (normalized) [7]: 65%
- SPR binding response (normalized) [8]: 31%

B6: ATI-1339 [40K 4-branch PEG] (designed binder)
chain: MGVSDVPRDLEVVAATPTSLLISWTLPHAGRAHYYRITYGETGGNSPVQEFTVPGRGVTATISGLKPGVDYTITVYAVTVTTTKVIHYKPISINYRTEGSGCHHHHHH
modifications: 40K 4-branch PEG on the Cys of the EGSGC tail
notes: cysteine mutant of 2987_H07
- ARE-luciferase IC50 [9]: 0.28 nM
- ARE-luciferase IC50 [10]: > 1000 nM
- ARE-luciferase IC50 [11]: 6 nM
- IC50 [12]: 0.28 nM
- Kd [13]: 3.6 nM
- Kd [14]: 6.5 nM
- Kd [15]: 6.9 nM

B7: ATI-1338 [40K 2-branch PEG] (designed binder)
chain: MGVSDVPRDLEVVAATPTSLLISWTLPHAGRAHYYRITYGETGGNSPVQEFTVPGRGVTATISGLKPGVDYTITVYAVTVTTTKVIHYKPISINYRTEGSGCHHHHHH
modifications: 40K 2-branch PEG on the Cys of the EGSGC tail
notes: cysteine mutant of 2987_H07
- ARE-luciferase IC50 [9]: 0.28 nM
- ARE-luciferase IC50 [10]: > 1000 nM
- ARE-luciferase IC50 [11]: 5.8 nM
- IC50 [12]: 0.24 nM
- Kd [13]: 1.9 nM
- Kd [14]: 4.6 nM
- Kd [15]: 3.8 nM
- Kd [16]: 0.85 nM

B8: ATI-1276 [40K 2-branch PEG] (designed binder)
chain: MGVSDVPRDLEVVAATPTSLLISWYLPYPAHMNYYRITYGETGGNSPVQEFTVPGRGLTATISGLKPGVDYTITVYAVTLTKSQILHHRPISINYRTEGSGCHHHHHH
modifications: 40K 2-branch PEG on the Cys of the EGSGC tail
notes: cysteine mutant of 2524_D09
- ARE-luciferase IC50 [9]: 0.08 nM
- ARE-luciferase IC50 [11]: 0.15 nM
- IC50 [12]: 0.28 nM
- ARE-luciferase IC50 [17]: 110 nM
- Kd [18]: 4.18 nM
- Kd [19]: 8.8 nM

B9: ATI-1278 [40K 2-branch PEG] (designed binder)
chain: MGVSDVPRDLEVVAATPTSLLISWSLPYAGHLNYYRITYGETGGNSPVQEFTVPGRGVTATISGLKPGVDYTITVYAVTLTKSQLIHYMPISINYRTEGSGCHHHHHH
modifications: 40K 2-branch PEG on the Cys of the EGSGC tail
notes: cysteine mutant of 2525_D05
- ARE-luciferase IC50 [9]: 0.27 nM
- ARE-luciferase IC50 [11]: 1.1 nM
- IC50 [12]: 0.54 nM
- ARE-luciferase IC50 [17]: > 2000 nM
- Kd [18]: 6.04 nM
- Kd [19]: 3.3 nM

B10: ALK4-Fc (R&D Systems) (Fc fusion, UniProt P36896 24-126, looked up, not shown: a dimerising Fc or GST)
chain: SGPRGVQALLCACTSCLQANYTCETDGACMVSIFNLDGMEHHVRTCIPKVELVPAGKPFYCLSSEDLRNTHCCYTDYCNRIDLRVPSGHLKEPEHPSMWGPVE
notes: also called activin receptor-like kinase 4 Fc
- SPR binding response (normalized) [5]: 100%
- SPR binding response (normalized) [6]: 100%
- SPR binding response (normalized) [7]: 30%
- SPR binding response (normalized) [8]: 2%

B11: ActRIIB-Fc (produced in house) (Fc fusion, UniProt Q13705 19-134, looked up, not shown: a dimerising Fc or GST)
chain: SGRGEAETRECIYYNANWELERTNQSGLERCEGEQDKRLHCYASWRNSSGTIELVKKGCWLDDFNCYDRQECVATEENPQVYFCCCEGNFCNERFTHLPEAGGPEVTYEPPPTAPT
- SPR binding response (normalized) [6]: 100%
- SPR binding response (normalized) [8]: 189%

B12: ActRIIB-monomer (produced in house) (receptor, UniProt Q13705 19-134, looked up)
chain: SGRGEAETRECIYYNANWELERTNQSGLERCEGEQDKRLHCYASWRNSSGTIELVKKGCWLDDFNCYDRQECVATEENPQVYFCCCEGNFCNERFTHLPEAGGPEVTYEPPPTAPT
- SPR binding response (normalized) [5]: 100%
- SPR binding response (normalized) [7]: 92%
